Data: paper PMC2930062 (Journal of cellular biochemistry, 2010)

Molecular target: T1, RANBP17^1-252, GAL4 DNA binding domain fusion (pM) (human (cDNA library of DU145 cells), UniProt Q9H2T7 1-252)
T1 sequence (looked up): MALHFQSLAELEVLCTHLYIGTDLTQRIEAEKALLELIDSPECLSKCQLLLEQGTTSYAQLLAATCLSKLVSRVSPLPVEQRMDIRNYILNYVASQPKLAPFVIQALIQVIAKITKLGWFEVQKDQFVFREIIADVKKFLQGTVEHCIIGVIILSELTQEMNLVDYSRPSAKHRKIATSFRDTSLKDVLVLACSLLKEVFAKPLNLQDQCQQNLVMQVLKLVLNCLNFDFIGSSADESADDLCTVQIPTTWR
Experiment: two-hybrid

- fold increase in luciferase activity against empty vector transfectants: 5.7 fold
B1: E12^508-654, VP16 activation domain fusion (pVP16) (domain or fragment, human, UniProt P15923 508-654, looked up)
chain: TSAADHSEEEKKELKAPRARTSPDEDEDDLLPPEQKAEREKERRVANNARERLRVRDINEAFKELGRMCQLHLNSEKPQTKLLILHQAVSVILNLEQQVRERNLNPKAACLKRREEEKVSGVVGDPQMVLSAPHPGLSEAHNPAGHM
